The record followed here is paper doi:10.64898/2025.12.03.692196.

The term stoichiometry N denotes a count of units in the complex or per binding partner.

Assay [1] deals with YRDC_(ΔL222), GAMOS-associated variant of the ΔN43 construct (human). The experiment in a line: native gel or EMSA.
Assay [2] shares this target. Description: mass photometry.
Assay [3] concerns the target YRDC_(I178T), GAMOS-associated variant of the ΔN43 construct (human). Description: mass photometry.
Assay [4] has as its target human YRDC lacking the N-terminal 43 residues (ΔN43 construct) (human). The experiment in a line: native gel or EMSA. On the technique in general: Mobility shift assays separate free from complexed probe on a gel.
For assay [5] the target is unchanged. The experiment in a line: native MS.
The target is the same in assay [6]. The experiment in a line: mass photometry.
Assay [7] deals with YRDC_(A41V), GAMOS-associated variant of the ΔN43 construct (human). The experiment in a line: native gel or EMSA.
The target is the same in assay [8]. The experiment in a line: mass photometry.

Take “YRDC_(ΔL222), GAMOS-associated variant of the ΔN43 construct (enzyme)”: the stoichiometry N in assay [1] is 2. In assay [2], the tetramer fraction is 27% and the trimer fraction came out at 44%.
Consider “YRDC_(I178T), GAMOS-associated variant of the ΔN43 construct (enzyme)”, for which, in assay [3], the dimer fraction came out at 19%.
As for “human YRDC lacking the N-terminal 43 residues (ΔN43 construct) (enzyme)”, the stoichiometry N in assay [4], in assay [5] and in assay [6] was 2 each time.
As to “YRDC_(A41V), GAMOS-associated variant of the ΔN43 construct (enzyme)”, in assay [7], the stoichiometry N stood at 2. For the same substance, in assay [8], the tetramer fraction was determined as 24% and the trimer fraction was 28%.
